Measured values taken from patent publication US20050148763A1, “Peg-binding pth or peg-binding pth derivative” (Chugai Seiyaku Kabushiki Kaisha, priority 2002, published 2005).

Test: Pharmacokinetics and bioavailability in rats by subcutaneous route
Format: in vivo
Conditions: subcutaneous, 80 μg/mL at 1 mL/kg
Experimental: Each sample was adjusted to 80 μg/mL by dilution with 25 mmol/L citrate-phosphate buffer (pH 5.0) containing 100 mmol/L NaCl and 0.05 vol % Tween 20 to give a solution for administration. Male SD rats at 6 weeks of age (CLEA Japan, Inc.) were provided for this experiment. Intravenous injection was performed on rats having polyethylene tubes (SP-31, Natsume Seisakusho Co., Ltd.) inserted into the femoral artery and vein. The solutions thus prepared were each administered at a dose of 1 mL/kg through a polyethylene tube inserted into the femoral vein, and blood was collected through a polyethylene tube inserted into the femoral artery before administration and at 5, 15, 30 and 45 minutes as well as 1, 2, 4, 6, 8 and 24 hours after administration. Subcutaneous administration was performed on rats having polyethylene tubes inserted into the femoral artery. The solutions prepared above were each subcutaneously administered at a dose of 1 mL/kg to the dorsal neck region of the rats, and blood was collected in the same manner as used for intravenous injection. These blood samples were centrifuged to collect plasma and stored at −40° C. until assayed for PTH(1-34) or PEG-PTH(1-34) levels.
The level of PTH(1-34) or PEG-PTH(1-34) was determined by RIA analysis using a Rat PTH IRMA Kit (Immutopics). A Cobra Quantum Model 5005 gamma counter (Packard) was used to measure radioactivity for each sample. The plasma level of PTH(1-34) or PEG-PTH(1-34) was calculated from a calibration curve prepared using PTH(1-34) or PEG-PTH(1-34). The Winnonlin program Ver. 2.1 (Scientific Consulting Inc.) was used to analyze the time course of changes in the calculated plasma PTH(1-34) or PEG-PTH(1-34) levels (FIG. 3: by intravenous route; FIG. 4: by subcutaneous route) to calculate the following as pharmacokinetic parameters: time required to reach the maximum plasma level (Tmax); maximum plasma level (Cmax); area under the curve of plasma levels (AUC); plasma half-life (t1/2); total body clearance (Cltotal); mean residence time in the body (MRT); and bioavailability (BA). […]

Question: Which AUC does the source give for “20k PEG-hPTH(1-34): hPTH(1-34) reacted with mPEG 20 k-SPA, fraction having one 20 kDa PEG molecule per PTH molecule” here?
Answer: 2693.945 ng·h/mL

Question: And the MRT?
Answer: 18.93 h

Question: And the Tmax?
Answer: 7.000 h

Question: And the “t ½” value?
Answer: 11.346 h
